Measured values published in publication PMC5636754, “Structural and biochemical characterization of DAXX-ATRX interaction” (Protein & Cell, 2017).

B10: DAXX helical bundle (DHB) domain of death domain-associated protein (DAXX), aa 55-144 (domain or fragment, UniProt Q9UER7 55-144, looked up)
chain: GKKCYKLENEKLFEEFLELCKMQTADHPEVVPFLYNRQQRAHSLFLASAEFCNILSRVLSRARSRPAKLYVYINELCTVLKAHSAKKKLN
notes: Death domain-associated protein (DAXX), DHB domain, residues 55-144; they may stand in the supplementary file; also called DHB_(DAXX); DBH_(DAXX)

Tests used:
[1] = biological target: B10; assay: ITC; DHB_(DAXX) titrated with ATRX fragments or peptides; conditions: both partners purified
[2] = biological target: T1, DAXX helical bundle (DHB) domain of death domain-associated protein (DAXX), aa 55-144 (UniProt Q9UER7 55-144); assay: ITC
T1 chain: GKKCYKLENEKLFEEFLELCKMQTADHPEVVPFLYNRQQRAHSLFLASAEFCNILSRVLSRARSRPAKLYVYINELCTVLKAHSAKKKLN

[3] = biological target: T2, DAXX interaction domain of ATRX (DID_(ATRX)), aa 1,189-1,326 (human, UniProt P46100 1189-1326); assay: ITC; DHB_(DAXX) titrated with ATRX fragments or peptides; conditions: both partners purified
T2 construct: also called full length DID_(ATRX); ATRX_(1,189–1,326)
T2 sequence (looked up): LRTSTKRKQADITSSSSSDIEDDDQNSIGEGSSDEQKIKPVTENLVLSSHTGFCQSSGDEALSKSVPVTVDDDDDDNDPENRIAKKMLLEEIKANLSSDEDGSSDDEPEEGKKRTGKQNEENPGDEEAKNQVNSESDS

B1: ATRX_(1,265–1,285), α-helix frame only (αDID), wild type peptide (peptide, UniProt P46100 1265-1285, looked up)
peptide: NDPENRIAKKMLLEEIKANLS
notes: the wild type is called 'wild type peptide control'; also called WT
[1]
  Kd: 1000 nM

B2: ATRX_(1,265–1,285) K1273A mutant peptide (peptide, UniProt P46100 1265-1285, looked up)
peptide: NDPENRIAAKMLLEEIKANLS
notes: source: synthetic peptide
[2]
  Kd: 2.3 µM
[1]
  binding result: binds

B3: ATRX_(1,265–1,285) E1279Q mutant peptide (peptide, UniProt P46100 1265-1285, looked up)
peptide: NDPENRIAKKMLLEQIKANLS
notes: source: synthetic peptide
[2]
  Kd: 3.2 µM
[1]
  binding result: binds

B4: ATRX_(1,265–1,285) D1266N mutant peptide (peptide, UniProt P46100 1265-1285, looked up)
peptide: NNPENRIAKKMLLEEIKANLS
notes: source: synthetic peptide
[2]
  Kd: 7 µM
[1]
  binding result: binds

B5: ATRX_(1,265–1,285) E1268Q mutant peptide (peptide, UniProt P46100 1265-1285, looked up)
peptide: NDPQNRIAKKMLLEEIKANLS
notes: source: synthetic peptide
[2]
  Kd: 5.6 µM
[1]
  binding result: binds

B6: ATRX_(1,265–1,285) I1280A mutant peptide (peptide, UniProt P46100 1265-1285, looked up)
peptide: NDPENRIAKKMLLEEAKANLS
notes: source: synthetic peptide
[1]
  Kd: 10900 nM

B7: ATRX_(1,265–1,285) L1277A mutant peptide (peptide, UniProt P46100 1265-1285, looked up)
peptide: NDPENRIAKKMLAEEIKANLS
notes: source: synthetic peptide
[1]
  Kd: 80600 nM

B8: ATRX_(1,244–1,285), 42-residue loop-helix segment of DID_(ATRX) (domain or fragment, human, UniProt P46100 1244-1285, looked up)
chain: SSGDEALSKSVPVTVDDDDDDNDPENRIAKKMLLEEIKANLS
notes: source: co-expressed with DHB_(DAXX) and purified for the crystal
[1]
  Kd: 70 nM

B9: ATRX_(1,259–1,285), minimum ATRX motif of 27 residues (peptide, UniProt P46100 1259-1285, looked up)
peptide: DDDDDDNDPENRIAKKMLLEEIKANLS
notes: begins with the polyD loop 1259-DDDDDD-1264
[1]
  Kd: 70 nM

## B10
[3]
  Kd: 4.5 µM
